Experimental data reported in paper PMC8632968.

Molecular target: S. cerevisiae full-length Ty3 integrase (assembled on Ty3 LTR DNA as the Ty3 intasome) (S. cerevisiae)
Assay: cryo-EM structure; minimal integration machinery: Ty3 intasome with TFIIIB on unlabelled 55-bp tD(GUC)K DNA, without TFIIIC; gel filtration in 40 mM Tris pH 7, 80 mM NaCl, 7 mM MgCl2, 1 mM DTT; un-crosslinked; strand-transfer complex, 4.0 Å

S. cerevisiae full-length Ty3 integrase (assembled on Ty3 LTR DNA as the Ty3 intasome) (enzyme)
stoichiometry N: 4
